assay: soluble on expression in E. coli; label from the status in PepcDB or PDB records

Sequence | soluble on expression in E. coli
SNAASATETNTAPSADTQAPKPVNTVTSDVDCSVSAAWGLYKFNQKSNFSAEFEMPESVKAGTGFDALIKIKDISVSNDNLSGYKNAKLTKSSIRINVGKNVKLDGNQPGLSLSNGVLSINDHLKASLEGNSLRISAAPITVRLQALTEGTLTFIPEKTILTNTASVDGYTANTTCTTNADKPFATVKVDPADGLTITAPESASIKQDVQITATVPEKLNEKMDGKVQFFVNHIAAGDPVPVTEDNKASTSIIFDTSGSKTITARFIDAEGYNPAPDGETIIPVVTELDTKKPEDTDSYTGLINGSATSLLKPAKVMPGEKVSVSASLLPNKAPIRVYEIGINAPEDVKYIDGTGKTNYSSKLATTGSVFSSPGSGYYDPEWKNESKKPNESYRGFHSDTSYSVVDTSPQTVSAEFEIPKTLAPGIYMFQMGVYKYSNSLKDLVSIPETAFEIAGPDLPALPERKIKPQPEETPEVSDGSSTAKLVKSP | soluble
MNIVIAAVGGQGAVLTSKILGTLAQNLGKDVKVSEVHGMSQRGGSVVAYVKFGDKVYSPVVEKGTADIVLAFEMLEGARYVDYLKENGKLVVNTQRIDPMPVITGDMEYPADLGEKLEELNIGYIPVDALSLAKNAGTIKAVNVALIGVLAQNSNIKKEEWIKAIKDTVPEKFLELNLKAFELGYNL | not soluble
MAGDPMMKKDKDTNDQKSESHMKHNDESKVPEDMTSTNEGEFKVGDKVTITAGHMPGMKGAEATVKGAYKTYAYVVSYKPTNGNEKVNNHKWVVNEEIKDAPKDGFSKDDTVKLEANHMSGMKGATANIDNVKKTTVYVVDYKSKDNGKIIKNHKWMTGNELKARLEHHHHHH | soluble
MSSNDVLAQIAGLAKAAAELENDFSTDSEMQQDSEICDEVDAELFDDFETKPSSRKESSGTSRRTRMAHRELQGLQFANPGDEMSRFLPDSVDIISTNRSKRVAAEKQADLRDEPLHHDKTGKLSVTAKGQTLFFDLCDCLVVECDGCHWPCKQCKSRKCLIGCRQNRKEMVIRVEEMYTVTEAPGPVVNINPYFPGQIKD | not soluble
MSLAGQIAIVTGASRGIGRGIALQLGEAGATVYITGRKPEESLNSKVGLSGLEATADEITKRGGKGIARFVDHQNMEEVKNFFEVVEKEHQGQLDILVNNAYQGVTAISENMGKPFYETDPYVWDTINNVGLRNHYFCTVYAARLMTARNKGLIVNVSSGGGLRYLFNVAYGVGKQALDRMSADTAVELRKKNVCVVSIWPGAVRTELVDKMFKDENGKPRPEIKNAEVFANGETVEYPGRAVVSLASDPRRMDKTGRILITEDLGKEYGFVDIDGLRPPNLRSVSFILKHLGWNTTANFVPTWVKLPGWLVWAGNSRL | soluble
MSLTADVDYPLLAKMRSASRRALTSLVDWFGTMAQDLDHQGLTTLAGELVSVARLLDREAVVTRYLTVPAEDATPRIRLIERLVSGKVGAPTLEVLRTAVSKRWSANSDLIDAIEHVSRQALLELAERAGQVDEVEDQLFRFSRILDVQPRLAILLGDCAVPAEGRVRLLRKVLERADSTVNPVVVALLSHTVELLRGQAVEEAVLFLAEVAVARRGEIVAQVGAAAELSDAQRTRLTEVLSRIYGHPVTVQLHIDAALLGGLSIAVGDEVIDGTLSSRLAAAEARLPDEGHHHHHH | soluble
MGSDKIHHHHHHMRWIAPTEKDVAAATLEKRLWAAADELRANSGLKSAEYSQPILGLIFLKFADARFAVRRAELAKVTTGRRGSRVDDPASYHAEGVLFLASEARFSELLEFPEGGRDGKTLGQAVDDAMRAVERDNEQLAGVLPKTYQQFKARPLKELLKAFSAIPVDLEGDSFGKIYEYFLGEFAMAEGQGGGEFYTPQPIVRLMVEILEPFKGRVLDPACGSGGMFVQSARFVSEHKKNGGLAIHGVEKVDTTGQLCRMNLAVHGLEGDIRHGGEINSYYDDPHNAVGRFDFVLANPPFNVDKVDKDRIRDAVGPGRRFPFGVPNVDNANYLWIQLFYSALNESGRAGFVMASSAPDARASEQELRRKLIESRAVDVIISVGSKMFYTVALPCTLWFLDRGKPKDRRDKVLFIDAQHIYRQVDRAHRDWTEAQIGFLANVARLFRREEVDLTFGGAEAKYRLREVFGNKPTYADVAGFCKAATISEIEKQAWSLNPGRYVGAAQGEEVSDEDFRTQFEGLAEEFETLTAEAREFEKVITKTAAEILG | not soluble
MEEKPKYKRILLKLSGEAFAGEQGYGIDPAFLEYISHEIKNVYDLGVQVAIVIGGGNIFRGFQGKEIGVDRATADYMGMLATVINALALQSALENHVNIPTRVLSAIEMRQVAEPYIRRRAIRHLEKGRIVIFAGGTGNPFFSTDTAAALRAAEIGAEVLIKATKVGGIYDKDPEKYPDAVLIKEISYLEVINMGLKVMDHTALTLCKENEIPIIVLNVKEKGNLRRAVLGEEVGSVVRGLEHHHHHH | not soluble
MSLTKQVYIIHGYRASSTNHWFPWLKKRLLADGVQADILNMPNPLQPRLEDWLDTLSLYQHTLHENTYLVAHSLGCPAILRFLEHLQLRKQLGGIILVSGFAKSLPTLQMLDEFTQGSFDHQKIIESAKHRAVIASKDDQIVPFSFSKDLAQQIDAALYEVQHGGHFLEDEGFTSLPIVYDVLTSYFSKETREGGSHHHHHH | soluble
MQVFDLSVDGATTIDIGASTGGFTDVMLQNSAKLVFAVDVGTNQLAWKLRQDPRVVSMEQFNFRYAEKTDFEQEPSFASIDVSFISLSLILPALHRVLADQGQVVALVKPQFEAGREQIGKNGIIRDAKVHQNVLESVTAMAVEVGFSVLGLDFSPIQGGHGNIEFLAYLKKEKSASNQILAEIKEAVERAHSQFKNE | not soluble
MGHHHHHHSHMVGTQPRFLVKIHQKFYWAIRDDLIIHGGYKRSGLTSSFALVAMGPLGRPWAASFGFFFLAVVSLATPTPGEDDDIPVKIHRLTFVKGLVPDVTGGSSYYVCVYPSRKLFCTPTRWKDLSRFLNSETLNQVCSARTIYSVVPVEMLRIISLPLPPEIKSIVGGSIRSQYVSFPTFISLHPAKLPIWKSFANLKVSMKFRSSQWEVAFSVVSKTDYAITYWAEIPGFLIHESATINLINQPLLALYADLHVDMVMRLTDKFIYCQTYTLQQKNLTDPRTGKRPTSSVLIPSPHVKNCQIRRRNETHFVDTCSSAWDNYTSEAHNISRNSSSRGSNATQLVNITANPCTLPTLWDNWPCYTNYRSSPVPEIVIHENILLEGRAIYIIYHQIGLFDQPRLCVATFWMSKEETLLMQLDYPCEVSVEKKGKKFFIKSVVSMYHAISMVTFIWEYGIEIYDFLE | not soluble
MEKYIHSVEDYHRLISYLENNLNYEDSVVNHVIYVIAKTGMRYGEIIGLTNNDTSLDEHYLHTYKRYNTSTWKWTNAKNESSKRYIPIDDKIVAALSNMIKERERINSLLRIKNKEEFLFFHYGLEHGIPSVATVNKALKKILKKLDIEPIITTKGLRHTYGSYLLHNNIDMGVVARILGHKDIQMLIQVYGHTLTEKIDKEFKEVEQIMNRILEHHHHHH | not soluble
MDCNGSGGSSDDDKPLHHDGGVRMKFFRSVGEVFGYSPFRSLAQHARMCGRAVGLLQQQFEALRRGNYEEVEELREEIDELEHHADQIKEEIRGNVTKSLMLPVDRHDLLEFLKVQDDILNNCEHVGHMVTFRKVSAPEDVWDEFLVLLSKLMEIVNNYEEMVERIMQLVETSFSKKEVNRALEYVPIIEQLEHECDLIQIGLHTKLFNLENSNPLDIQLMVTWVVHLGYVANAAARASDRFRIMILGR | soluble
MSFVVIIPARFSSTRLPGKPLVDINGKPMIVHVLERARESGAERIIVATDHEDVARAVEAAGGEVCMTRADHQSGTERLAEVVEKCGFSDDTVIVNVQGDEPMIPAVIIRQVAENLAQRQVGMATLAVPIHSAEEAFNPNAVKVVLDAEGYALYFSRATIPWDRDRFAKSLETVGDTCLRHLGIYGYRAGFIRRYVSWQPSPLEHIEMLEQLRVLWYGEKIHVAVAKAVPGTGVDTADDLERVRAEMR | not soluble
GSEDTMDRINKDHDHTTSVASRFILADVITSTAFSNASGDINTYASSYIEYEVGVDNQLYYAEVRENEPSSSSTFNNSWNGIYSSLKNARIIIDQCGEGGRDHGNDVTRGMAEVMAAYNCALIADFFGDAPCSQAALVDEKGSPVYMTPKMDTQQEIYTQIISYLDDAIANLQKEDLADVTEQDFLYAGDADKWLKFAYGLKARYTMRLINRSSNKSADYEKVLDYVSKSFTSADDQAAFDIYDSNNINPFYGFYNSRAGFGASTSLGTKLLAYNDPRANRAFFTPIVDKKRSQVAANDPSLVPAPNGSPDQSTSKYGISAFVYAKTAPTLLMSYHELMFLKAEALCRLNRDAEDALKEAVVAGLLNAENSISIAIKELGSGLNTNSSEVITETSAGKYFDDVVKAKYAANPLQETMIQKYLAMWGASGEATETYNDFRRMKGLNENFITLTNPNNSSKFPLRYPYGNSDTAANPEVKAAYGNGDYVYSEPVWWAGGSR | soluble
AERLPDFLAKIQPSEIFPGADRYGKPEGKPMVARVYKGDEQLGLVYITTDAVNTRGYSSKPIDTLMVLANDGTIAGAKLVDHHEPIMLIGIPHLPAPGRAIRSNWLPAYIKPNFTLTNRLRLKGLPTVPQPSKATGAGVP | not soluble
MGSDKIHHHHHHMLKINMFSAADSVKGQGVGSAYNELMNLLKTHLNQEFDVSVNRYRRVDITHYHTINFSYYLSTFLPHRGRKIGYVHFLPETLEGSLKIPQPFRSIFYAYVLAFYRRMDHIVVVNPTFIPKLVAAGIPAERVTYIPNFVSRDEFYPVTVEQKQALRQQYGYATDRFTILGIGQIQERKGLFDFIKLARNNPSYQFIWAGGFSFGRMTDGYAELKKVVDNPPANLSFPGIVDRDKLVDYYNLADLFLLPSFNELFPMSVLEAFSTGTPVLLRDLDLYQAIIAGDYQPAKDYAEMDEQLHRLAADPQALAHWRQQSLAAADRYSEEHLTQIWREFYTQQAKER | not soluble
MGSDKIHHHHHHMASLLALDFDGVLCDGLREYFLAAWQAGCDRDPSWPEVPEPSLEDRFRLLRPVIEQGWEMPVLLQALRREVADAEVLADWPQLCDRVLKDWGLTTTELSQAMDRVRDRWIKRDRKEWLQLHHFYPGVAERLAQQTAPWVIISTKDGRFIAELLEQIPNLQPPLAIYGKEVGVPKTQTLIQLQVEFEQIAFVEDRLPALEAAAQLESVDLYLADWGYNTDRDRQQAMTSDRIQLLRLTDFSSGRSPALAASPVES | not soluble
MAVTQTRDAVIIGGGHNGLVCAFYLAKAGLKVTVCEARGVVGGAAVTEEFHPGFRNSVASYTVSLLNPRVIADMGLRELGLTFLERPISNFLPISDDKYIKLGGGLERTQEEFRKYSRRDAEVLPAYYAMLDEIGDILRDLAQETPPNLGDGLPGLLRALRQGGRLAFLSRQRKRDLLDLFTKSARDVLDGWFESEPVKAAFGFDAVVGNFASPDTPGSAYVLLHHTFGEVNGKKGAWGHAVGGMGAITQAMAKACEAAGVEILLDAPVEAVHIDGGKAAGVQLVDGRQIMAPIVSANVNPALLYKKLVPPSALTPDFRKAVDGYKNGSGTFRMNVALSELPSFTCLPGKETAEHHQSGIVIAPSLDYMDAAYRDAKGQGISKAPIVEMLIPSSLDTSLAPPGQHVASLFCQQFAPELPDGRSWDDAREAAADLIIDTVDQWAPGFKASVLGRMILSPLDLERKFGLIGGDIMHGHMSLDQLWATRPLLGHASHRAPIAGLYMCGAGTHPGGGVSGNPGRNAAREILRDKDFATAVKLSVVGRLEHHHHHH | not soluble

Reference: the DeepSol protein solubility set
